From article PMC1851628 (Nucleic Acids Research, 2007)

Molecular target: the molecule itself
Experiment: AUC

B1: RepB initiator protein of plasmid pMV158 (natural protein, UniProt P13921 1-210, looked up)
chain: MAKEKARYFTFLLYPESIPSDWELKLETLGVPMAISPLHDKDKSSIKGQKYKKAHYHVLYIAKNPVTADSVRKKIKLLLGEKSLAMVQVVLNVENMYLYLTHESKDAIAKKKHVYDKADIKLINNFDIDRYVTLDVEEKTELFNVVVSLIRAYTLQNIFDLYDFIDENGETYGLTINLVNEVIAGKTGFMKLLFDGAYQRSKRGTKNEER
With B1 the “stoichiometry N” value was 6.
